Entries after “also recorded” stand apart in the source; their conditions may differ. Marks after values point to notes of the source that are not given here.
Key:
chicken aortic rings = assay: chick aortic ring assay (angiogenesis); format: cell-based; conditions: for blood vessel formation in aortic rings (in words) / Angiogenesis Scores: 2 μM recombinant RNase; for blood vessel formation in aortic rings (in words): ex vivo; for Angiogenesis Scores: 24 h, Mean ± SEM, 6 to 8 rings; for % change of angiogenesis score vs control: 2 μM, ([rRNase − control]×100/[control])
From the text: The angiogenic activity of a particular RNase A polypeptide or fragment can be assessed by known protocols, such as that described in the methods section and the following described protocol, herein referred to as “a standard angiogenesis assay.” For example, the chick aortic ring sprouting assay, described in the art, can be a standard angiogenesis assay according to the invention. In the assay, aortic arches are dissected from 13-day-old chicken embryos, cleaned free of unwanted tissue and cut into 0.8 mm slices. Each ring is transferred into center of a well of 96-well plate, and ice-cold Matrigel (Becton Dickinson, Bedford, Mass.) is added immediately to imbed the ring. After solidification of the Matrigel, human endothelial-SFM basal growth medium (Invitrogen) is added to each well. After addition of recombinant leukocyte RNase A-1 or RNase A-2 or control preparation, the rings are incubated at 37° C. for 24 h. Vessels sprouted from rings are observed under microscopy, and assessed by blinded observers.
Both chicken leukocyte RNases are structurally related to the mammalian angiogenin lineage, as discussed above and illustrated in FIG. 1. However, none of the non-mammalian ribonucleases evaluated thus far have been reported to have angiogenic activity. Here, the potential angiogenic activity of recombinant leukocyte RNases A-1 and A-2 was evaluated using the chick aortic ring assay as described in the literature. Briefly, aortic rings prepared from 13 day-old chick embryos were incubated with 2 μM recombinant leukocyte RNases (rRNases).
Table 1 details the results of the chick aortic ring assay. Specifically, vessels sprouted from aortic rings treated with 100 μl of human endothelial-SFM basal growth medium and 2 μM recombinant leukocyte RNase were observed under microscopy and assessed by blinded observers, according previously published methods. Each of the groups (named Exp. 1 and Exp. 2) were composed of 6 to 8 rings. Percent (%) change is a value that represents ([rRNase A-1 or A-2−control]×100/[control]). *p<0.05, as determined using the Student's t-test.
The chick aortic ring sprouting assay was performed as described previously with minor modifications. Aortic arches were dissected from 13-day-old chicken embryos, cleaned free of unwanted tissue and cut into 0.8 mm slices. Each ring was transferred into center of a well of 96-well plate. Ice-cold 10 μl of Matrigel (Becton Dickinson, Bedford, Mass.) were added immediately to imbed the ring. After the Matrigel was solidified, 100 μl of human endothelial-SFM basal growth medium (Invitrogen) was added to each well. After addition of recombinant leukocyte RNase A-1 or RNase A-2 or control preparation, the rings were incubated at 37° C. for 24 h. Vessels sprouted from rings were observed under microscopy, and assessed by blinded observers. Each groups composed of 6 to 8 rings.

yeast tRNA = assay: ribonuclease assay with yeast tRNA substrate; format: biochemical; conditions: for Optimum pH for RNase activity: 50 pmol rRNase, 40 mM sodium phosphate buffers pH 5.5 to 8.0; for Km / kcat: 40 mM sodium phosphate buffer
Procedure: FIGS. 4 A-D are graphs showing the ribonucleolytic activity of recombinant leukocyte RNases. (A) is a graph showing the optimum pH for RNase activity. Enzymatic activity was determined with 50 pmol rRNase A-1 (open squares) and rRNase A-2 (closed circles) that was incubated with 250 μg/ml yeast tRNA in 40 mM sodium phosphate buffer at the pHs indicated. Measurements of A260 per time were converted to pmol/s as described in […] and Methods. (B) is a graph showing the initial rates for RNase activity. Enzymatic activity was determined as described in (A) with 40 mM sodium phosphate buffer, pH 7.0. (C) is a graph showing the substrate preference for RNase activity. 50 pmol rRNase A-1 (left panel) and rRNase A-2 (right panel) proteins were incubated with 250 μg/ml of poly U (open squares), poly C (closed circles), poly A (open diamonds), poly G (open triangles) and poly I (open circles) in 40 mM sodium phosphate buffers, pH 7.0. A260 was measured after precipitation of undigested RNA at each of the time points indicated. (D) is two panels of graphs showing interaction of RNase with human placental RNase inhibitor (hPR1). RNase activity was measured with […] of bovine pancreatic RNase (left) or […] rRNase A-1 and rRNase A-2 (right) with 250 μg/ml of yeast tRNA as substrate with (+) or without (−) 200 U human placental RNase inhibitor (hPR1) in 40 mM sodium phosphate buffer, pH 7.0. The hPR1 was added to the RNases in buffer 5 min prior to initiation of RNase assay by addition of substrate. *p<0.01.
Next, the enzymatic activity of the two recombinant leukocyte RNases was characterized. Optimum pH was determined as 7.0 with 50 pmol rRNase A-1 or A-2, with 200 μg yeast tRNA substrate in 40 mM sodium phosphate buffers ranging from pH 5.5 to 8.0, as shown in FIG. 4A. […] Enzymatic activity was measured using 10 pmol rRNase A-1 or rRNase in 40 mM sodium phosphate buffer, pH 7.0. Conversion from A260 to pmol ribonucleotide product was carried out as described in reference 29 and in the Methods.
The ribonuclease (RNase) assay with yeast tRNA substrate has been described in detail elsewhere. In this study, 10 μL of a 20 mg/ml solution of yeast tRNA, polyuridylic acid (poly U), polyadenylic acid (poly A), polycytidylic acid (poly C), polyguanylic acid (poly G), or polyinosinic acid (poly I) (Sigma-Aldrich) were added to 800 μl of 40 mM sodium phosphate buffer, pH 7.0 containing recombinant FLAG-tagged chicken RNase protein. In experiments in which the pH optimum was to be determined, 40 mM sodium phosphate buffers of pH 5.0, 5.5, 6.0, 6.5, […] or 8.0 were used instead of the buffer of pH 7.0. In some experiments, 200 U human placental RNase inhibitor (Boehringer Mannheim) were added prior to the addition of the tRNA substrate. Conversion of units A260 per unit time to pmol/s were performed as described in [29], based on the following conversion factors: the average molecular weight of a molecule of tRNA is 28,100 (75-90 ribonucleotides/tRNA molecule×341 MW per ribonucleotide) with an A260 of 1.0 corresponding to 40 μg of RNA.

Row | Molecule | blood vessel formation in aortic rings (in words) (chicken aortic rings) | Angiogenesis Scores (chicken aortic rings; Exp. 1) | % change of angiogenesis score vs control (chicken aortic rings; Exp. 1) | Angiogenesis Scores (chicken aortic rings; Exp. 2) | % change of angiogenesis score vs control (chicken aortic rings; Exp. 2) | Optimum pH for RNase activity (yeast tRNA) | Km (yeast tRNA; pH 7.0) | kcat (yeast tRNA; pH 7.0) | Km, times lower than that for RNase A-1 (yeast tRNA; pH 7.0) | kcat, times lower than that for RNase A-1 (yeast tRNA; pH 7.0)
1 | rRNase A-1: recombinant carboxy-terminal FLAG-tagged Gallus gallus leukocyte RNase A-1, SEQ ID NO: 2, GenBank DQ395275 (protein, listed as Gallus gallus, C-terminal FLAG tag) VPTYQDFLRTHVDFPKTSFPNIAAYCNVMMVRRGINVHGRCKSLNTFVHTDPRNLNTLCINQPNRALRTTQQQLPVTDCKLIRSHPTCSYTGNQFNHRVRVGCWGGLPVHLDGTFP | comparable to that in the control | 0.38 ± 0.13 Arbitary Units | +2.7% | 0.41 ± 0.06 Arbitary Units | +24% | 7.0 | 17.2 µM | 2.61 s⁻¹ |  | 
2 | rRNase A-2: recombinant carboxy-terminal FLAG-tagged Gallus gallus leukocyte RNase A-2, SEQ ID NO: 4, GenBank DQ395276 (protein, listed as Gallus gallus, C-terminal FLAG tag) VPTYQDFLYKHMDFPKTSFPSNAAYCNVMMVRRGMTAHGRCKSFNTFVHTDPRNLNTLCINQPDQALRTTRRHFRITDCKLIRSHPTCRYSGNQFNRRVRVGCRGGLPVHLDGTSP | Prominent blood vessel formation; also recorded: has angiogenic activity ex vivo | 0.68 ± 0.26* Arbitary Units | +84% | 0.60 ± 0.14* Arbitary Units | +82% | 7.0 | 0.5 µM | 0.056 s⁻¹ | 34 times | 50 times
